Measured values as given in PMC7591262.

Target: Wtf4^antidote-mCherry (S. kambucha)
Assay: FRET or BRET

Substance: Wtf4^poison-GFP (natural protein)
- FRET (acceptor photobleaching): 40%
